Data on 2 molecules can be found in publication PMC12032919, “A blocking antibody against anti-Müllerian hormone restores ovulation and normal androgen levels in a spontaneous rat model of polycystic ovary syndrome” (eBioMedicine, 2025).

Experiment [1] has as its target T1, human AMH procomplex (completely cleaved AMH, non-covalent complex of the N-terminal and C-terminal homodimers) (human).
T1 sequence (P03971 25-560, looked up): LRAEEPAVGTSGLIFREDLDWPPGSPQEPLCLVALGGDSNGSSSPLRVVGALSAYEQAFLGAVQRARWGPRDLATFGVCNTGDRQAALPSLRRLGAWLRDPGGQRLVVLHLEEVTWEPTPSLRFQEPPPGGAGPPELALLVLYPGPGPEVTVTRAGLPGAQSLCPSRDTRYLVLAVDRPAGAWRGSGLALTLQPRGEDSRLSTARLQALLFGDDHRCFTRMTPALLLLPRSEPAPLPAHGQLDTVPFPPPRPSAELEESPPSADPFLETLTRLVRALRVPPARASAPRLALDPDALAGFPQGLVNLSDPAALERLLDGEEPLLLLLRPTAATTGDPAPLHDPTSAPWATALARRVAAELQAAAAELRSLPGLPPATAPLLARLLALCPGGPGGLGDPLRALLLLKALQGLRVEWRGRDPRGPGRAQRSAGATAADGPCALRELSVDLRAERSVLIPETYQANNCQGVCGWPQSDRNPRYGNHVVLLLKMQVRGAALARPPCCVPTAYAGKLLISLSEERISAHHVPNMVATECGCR
In words: ELISA; AMH captured on Mab10.6 coated on plates, incubated with various concentrations of AMHR2-Fc; bound AMHR2-Fc detected with anti-human Fc antibody conjugated to HRP; n = 3. (In general: An ELISA detects its analyte on a solid surface through an enzyme-linked reagent.)

Experiment [2] addresses T2, ovine AMH procomplex present in serum (Ovis aries, UniProt T1SHH2).
T2 construct: anti-Müllerian hormone, ovine, N-terminal pro-domain of the procomplex; anti-Müllerian hormone, ovine, C-terminal mature domain of the procomplex; source: endogenous, serum of one ovine sample
In words: ELISA; AMH of bovine, ovine or mouse serum held on plate-captured AMHR2-Fc; detected with biotinylated Mab22A2 (0.5 ug/mL) and streptavidin-HRP; pair: Mab22A2 with serum AMH. To be noted: one partner purified.

Experiment [3] concerns the target T3, mouse AMH procomplex present in serum (Mus musculus, strain , UniProt P27106).
T3 construct: anti-Müllerian hormone, mouse, N-terminal pro-domain of the procomplex; anti-Müllerian hormone, mouse, C-terminal mature domain of the procomplex; source: endogenous, serum of one mouse sample
The description is as above. To be noted: one partner purified.

The target of experiment [4] is T4, bovine AMH procomplex present in serum (Bos taurus, UniProt P03972).
T4 construct: anti-Müllerian hormone, bovine, N-terminal pro-domain of the procomplex; anti-Müllerian hormone, bovine, C-terminal mature domain of the procomplex; source: endogenous, serum of one bovine sample
The experiment is described as above. To be noted: one partner purified.

T3 sequence (P27106 whole entry, looked up, the tested form may be a part, one chain of several): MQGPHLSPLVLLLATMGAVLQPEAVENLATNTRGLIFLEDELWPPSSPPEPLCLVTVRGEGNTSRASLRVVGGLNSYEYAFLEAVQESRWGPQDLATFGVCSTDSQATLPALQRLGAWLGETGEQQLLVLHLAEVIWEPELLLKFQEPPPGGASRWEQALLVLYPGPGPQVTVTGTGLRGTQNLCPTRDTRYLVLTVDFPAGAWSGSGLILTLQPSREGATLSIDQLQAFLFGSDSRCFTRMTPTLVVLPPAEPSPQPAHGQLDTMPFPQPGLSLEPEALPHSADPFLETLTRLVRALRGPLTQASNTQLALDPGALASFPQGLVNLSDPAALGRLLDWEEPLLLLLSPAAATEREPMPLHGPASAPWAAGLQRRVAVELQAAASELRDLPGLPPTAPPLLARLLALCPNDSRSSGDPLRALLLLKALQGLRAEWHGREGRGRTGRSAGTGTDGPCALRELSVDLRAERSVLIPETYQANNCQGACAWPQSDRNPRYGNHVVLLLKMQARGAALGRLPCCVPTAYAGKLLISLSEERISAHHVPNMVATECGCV

B1: soluble fusion protein containing the extracellular domain of human AMHR2 and the Fc part of human IgG1 (AMHR2-Fc) (Fc fusion)
chain: PPNRRTCVFFEAPGVRGSTKTLGELLDTGTELPRAIRCLYSRCCFGIWNLTQDRAQVEMQGCRDSDEPGCESLHCDPSPRAHPSPGSTLFTCSCGTDFCNANYSHLPPPGSPGTPGSQGPQAAPGESIWMAL
The molecule B1 had a mean AUC of the ELISA curve in experiment [1] of 75900.

B2: Mab22A2, monoclonal antibody against human AMH (antibody, V domains shown)
VH: QIRLVQSGPELKKPGETVKISCKASGYSFTNYLMHWVKQAPGEALKWMGWINTNIGQPTYAEDFKGRFVFSLEASISTAFLHINSLKDEDTATYFCTSGYFGYDWYFDVWGVGTTVTVSS
VL: DIQMTQSPDSLSASVGETVTITCRASENIQNYLAWYQHKQGKSPQLLVYNAQTLANGVSSRFSGSGSGTHYSLNIHSLQPEDFGTYYCQHFWGTPRTFGGGTKLIIK
notes: the text calls the antibody IgG1a; Mouse IgG1 kappa; also called biotinylated Mab22A2; source: mouse monoclonal, previously prepared by immunisation of female BALB/c mice with human AMH precursor; hybridoma cells
Consider B2, for which the binding result in experiment [2], in experiment [3] and in experiment [4] was “binds” in each case.
